Assay results from PMC8983682 (2022).

Biological target: N1-MI15-WT (recombinant soluble NA head of A/Michigan/45/2015 fused to hVASP) (influenza A virus A/Michigan/45/2015)
Assay: BLI

Row | Binder | Kd [nM]
1 | 1G01 IgG (antibody, V domains shown) VH: EVQLVESGGRALRPGGSLRLSCAASGFKFDDYAMSWVRQVPGKGLEFVSGLNWNGDITAYTDSVKGRFTVSRDNAKNSLYLHINSPKPEDTALYYCARTSSWGDYTRGPEPKITWYFDLWGRGTLVTVSS VL: DIQLTQSPSFLSASVGDRITITCRASQGIDGYLAWYQQRPGKAPNLLIYAASLLQSGVPSRFSGSGYGTEFTLTISSLQPEDFATYYCQHLDSYPLFTFGPGTKVDIK | < 0.001
2 | CD6 IgG (antibody, V domains shown) VH: QVKLQESGGGLVQPKGSLKLSCAASGFTFNTYAMNWVRQAPGKGLEWVARIRSKSNNYATFYADSVKDRFTISRDDSQSMLYLQMHNLKTDDTAMYYCVRPSIYYYASGYLDVWGAGTTVTVSS VL: QIVLSQSPAILSASPGEKVTMTCRTSSSVSYMHWYQQKPGSSPKPWIYATSNLASGVPFRFSGSGSGTSYSLTISRVEAEDAATYYCQQWNSNPPTFGGGTKLEIK | 1.3
